Data from publication doi:10.1101/2023.07.25.550441 (bioRxiv, 2023).

Target: Homo sapiens ubiquitin (human, UniProt P0CG48 1-76)
Test: SPR

Kd: 37.9 mM
B1: S. cerevisiae UEV (domain or fragment)
chain: AVVNWLFKVIQPIYNDGRTTFHDSLALLDNFHSLRPRTRVFTHSDGTPQLLLSIYGTISTGEDGSSPHSIPVIMWVPSMYPVKPPFISINLENFDMNTISSSLPIQEYIDSNGWIALPILHCWDPAAMNLIMVVQELMSLLHEPPQDQAP
